# In the DeepSol protein solubility set:
# Assay: soluble on expression in E. coli; label from the status in PepcDB or PDB records
row,Sequence,soluble on expression in E. coli
1,MKIAVVAANGKAGQLITKEAVERSLDVTAIVRSENKTVAHQVIQKDLFDLTKEDIAPFDVIVDAFGQMNKDKLNEHSQSLEHLSNLVSDSQKRLIIIGGAGSLYVDKAHTERLIDSPDMPEEVKPISMAQVKTFEEIKERDDVQWTFVCPAPDFQFDGEKTGAYKVSDDEVIGTHVSYADFAKAIVDEAMNPEHIQSRFAVFAKLEHHHHHH,soluble
2,MKIDLNCDLGEGFGVWQMGDDAAMMQIATSVNIACGFHAGDPDIMHATVKLAKQNGVAIGAHPGFRDLHGFGRRPVPGITAAEIENLVAYQIGALQAVAALAGHKVTHVKAHGALSNVACEDDMTARAIASAIKAVDPSLVFVVLANSKLMLAGEAAGLPLAHEVFADRAYEDDGNLVSRKKPGAVLHDPNEIAERVLRMAQDGAVVSVTGKVIKMRTDTVCIHGDTKGAVEIARGVRRKLEASGITVAPFAGTLEHHHHHH,soluble
3,MKIIKRSGSEVTFDISKIMAAVSKANMEVVHSERLSEEQIETISNNVESICKEMNRSLSVEEIQDLVENQIMNLRAFAVARKYITYRYKRALVRKSNST,not soluble
4,MKILPLALFIIPFLAGCGANNTPPQTPIPGEKTSAKLRTLETGAAAIQSRPPVDAISTYLDGFHFYSGDKNGQMEAHHYVTVLNEDVMQAVIYDGNTKNARLMGVEYIISERLFKTLPPEEKKLWHSHQYEVKSGSLVAPGLPQVADKALMSKIVNTYGKTWHTWHTDRDKTLPMGIPALMMGFTGDGQLDPALLADRDRRLGIDTQAIKRERQDLPEHPVVKGANAWEQGEVIQLQRVQGSGEHGRGDTAHFGTSEQSRQLEHHHHHH,soluble
5,MKIQLIAVGTKMPKWVEEGFQEYRRRFPHDMPLELVEITAGKRGKNADIARILQKEGEAMLAAVPKGNRIVTLDIPGKRWDTEELAVQLESWKLDGRDVSILIGGPEGLAPACKAAADQSWSLSPLTLPHPLVRVVMAESLYRAWSITTNHPYHRELEHHHHHH,soluble
6,MKIRVVSSKEEIDTLKLNEEIVHLAFRPSNKDIFKLILKCPEVKAIHIPSSYKRTISSSAQMYLSMQNIALLEGDVWGHRKDINEYSEVSEHVFDRIKELKEEGLSDEDTIEKLVRETRLSPDFVTFIISN,not soluble
7,MKISSIDSIFAAWDGSITEARRLQSDMAERIVLKDEPNLLSEPTLLAGFDVGFEDEGRTTRAAAVLMNAGDLRLLETHVVRVPTSMPYVPGLLSFRELPALLQALTQLSRIPALVFVDGHGIAHPRRLGIAAHFGLVTNLPCIGVAKKRLVGDFVEPGTAFGEHTPILLHGTQVGWALRSKMHCKPLIISPGHKVSLHSALTWTQRCLTGYRLPEPTRQADRLASRRGQKIVSDLPSLLLEHHHHHH,soluble
8,MKITKLETVRVAERTNLLWVLVHTDEGITGLGETFFGAETVETYVHEYIAPRVIGRDPLQIDLLAQDLVGYLGFRSSGAEVRGNSAFDIALWDIFGKATNQPIAQLLGGFSRREIRTYNTCAGTEYIKKATGQQTANYGLSGGKDYDDLNGFLHRADELAHSLLEDGITAMKIWPFDAAAEKTRGQYISMPDLKSALEPFEKIRKAVGDKMDIMVEFHSMWQLLPAMQIAKALTPYQTFWHEDPIKMDSLSSLTRYAAVSPAPISASETLGSRWAFRDLLETGAAGVVMLDISWCGGLSEARKIASMAEAWHLPVAPHDCTGPVVLCASTHLSLNAPNALVQESVRAFYKTWYRDLVTALPEVKNGMITVPPGAGLGMELHPDIEKTFTVSRRFSDAASI,not soluble
9,MKITVLGCGALGQLWLTALCKQGHEVQGWLRVPQPYCSVNLVETDGSIFNESLTANDPDFLATSDLLLVTLKAWQVSDAVKSLASTLPVTTPILLIHNGMGTIEELQNIQQPLLMGTTTHAARRDGNVIIHVANGITHIGPARQQDGDYSYLADILQTVLPDVAWHNNIRAELWRKLAVNCVINPLTAIWNCPNGELRHHPQEIMQICEEVAAVIEREGHHTSAEDLRDYVMQVIDATAENISSMLQDIRALRHTEIDYINGFLLRRARAHGIAVPENTRLFEMVKRKESEYERIGTGLPRPWLEHHHHHH,not soluble
10,MKIVCIGAAPTALGAAYRLNELKNEGNEAAQNAEIVLLEQEAIAGGLSCTVTDEKGFLWDMGGHITFNHNYPYYEKATQWAVDDWNKLARNCMVDMNYLYDKKGIHLVPYPAQFAVPLFPDEVKNRCLADLKERYENPQDGTTPDNFEEWVLQHFGPTILNTFFKPYTKKVWTVEPLKMSPNWVGSRVAKLPQEKLEELCSMDQAELANADFGWGPNSYFTFPTYGGTGNVWNSMAKKLPNEWFKFNNKVTGVDHKEKTVEILEKGQTEPTKMSYDVLLNTAPIDQLVNNTQITAPLDIVHNKVFIVGVGLRKPMTSFLEKFTWLYFPDREVPFFRVTILSRYGEVTPDGDKYWSVMCECARPIDDPITEEEMVKKTLDGLVIKDMITREAIESVYSITLPYGYPIPTPNRDRELARAHGELERHQIYSRGRFGGWKYEASNQDHCFIQGKEFIDRVILGEPEKLYKTGVPTIPRGAAALEHHHHHH,soluble
11,MKIVEALKANGVEVIITEKADVLIKNFENAHISYALSADEKTGVIFFGGFEEKMKAGLAEHHVAILKEEDVKENILLAYEHARRKSDVLFASSSASKTADIEGKTVFGMHGPRKFTVVLVVRK,not soluble
12,MKIVEVKHPLVKHKLGLMREQDISTKRFRELASEVGSLLTYEATADLETEKVTIEGWNGPVEIDQIKGKKITVVPILRAGLGMMDGVLENVPSARISVVGMYRNEETLEPVPYFQKLVSNIDERMALIVDPMLATGGSVIATIDLLKKAGCSSIKVLVLVAAPEGIAALEKAHPDVELYTASIDQGLNEHGYIIPGLGDAGDKIFGTK,soluble
13,MKIYCCLNTVGFFMDGCGVIPPDSKEITAEHWQSLLKSQAEGGVIDFSVFPPSIKEVIRTHDDEVADANFQKQMLISDATDFINSRQWQGKAALGRLKEDELKQYNLWLDYLEALELVDTSSAPDIEWPTPPAVQARLEHHHHHH,soluble
14,MKKALPNTKVTVKLRRSNYKEEWYLIIESYPVYKRGSKRASRVVESINRTISTPIWDKSSIARILPDGTFNYKPKRDLNGIIQCRSTIDQEACIYADNVRKLRQHEYDSAILYTDKENEIAAQNERSEQDFIKYFNRIISTRHPNSSDSIIVNWRRVGELLKMYSQGQPIPFKAISVKLLEDIKMFLLRAPMGGNKKGTISQNTASTYFSILKAGLKQAFIDEYLTVDISAKVKGITNIEKPRVALTMNEVQMLVDTPCKDDVLKRAFLFSILTGLRHSDIQTLKWKQIQQTSKGTWQAVVIQQKTKRPDYKPVIQQALQLCGIRPDDDEALVFEGLTDASWISRPLKVWIEASGIKKHITF,not soluble
15,MKKCNIMIVGVGGQGTLLASRIIGNVALKQNYDVKVSEVHGMSQRGGSVVTYVKIGDKVYSPIIEKGEADIIMAFEMLEALRWAEYLKEDGKLLVNEQKINPMPVIIGKEKYPENIMQMLKENYKNVISLDALKIARECKNIKAVNTVLIGLLAKVLEIDKEVWIESIKEVVPSKAVDVNLKAFEEGYSRG,soluble
16,MKKEQISTQFYEVNPHTMIIFPKKSGSIVYSEIYEVDSHYTSKFTPFELIKTSCNFFGSSYDGGRRNGIPKIKTSSQKDVFILLLYRRNSISVTNY,not soluble
17,MKKIGIIGGTTPESTLYYYKKYIEISREKFEKYFYPELIIYSINFKEFFQNPEGWEGRKKILINAAKALERAGAELIAFAANTPHLVFDDVQREVNVPMVSIIDAVAEEILKRGVRKVLLLGTKTTMTADFYIKTLEEKGLEVVVPNDEEKEELNRIIFEELAFGNLKNKEWIVRLIEKYRESEGIEGVILGCTELPLAIKQGDVSVEVFDSAEIHMRKLIELASE,soluble
18,MKKIIALMLFLTFFAHANDSEPGSQYLKAAEAGDRRAQYFLADSWFSSGDLSKAEYWAQKAADSGDADACALLAQIKITNPVSLDYPQAKVLAEKAAQAGSKEGEVTLAHILVNTQAGKPDYPKAISLLENASEDLENDSAVDAQMLLGLIYANGVGIKADDDKATWYFKRSSAISRTGYSEYWAGMMFLNGEEGFIEKNKQKALHWLNLSCMEGFDTGCEEFEKLTNGLEHHHHHH,not soluble
